B1: NAD-dependent protein deacetylase sirtuin-1 (Homo sapiens), Q96EB6 (parent)
chain: MADEAALALQPGGSPSAAGADREAASSPAGEPLRKRPRRDGPGLERSPGEPGGAAPEREVPAAARGCPGAAAAALWREAEAEAAAAGGEQEAQATAAAGEGDNGPGLQGPSREPPLADNLYDEDDDDEGEEEEEAAAAAIGYRDNLLFGDEIITNGFHSCESDEEDRASHASSSDWTPRPRIGPYTFVQQHLMIGTDPRTILKDLLPETIPPPELDDMTLWQIVINILSEPPKRKKRKDINTIEDAVKLLQECKKIIVLTGAGVSVSCGIPDFRSRDGIYARLAVDFPDLPDPQAMFDIEYFRKDPRPFFKFAKEIYPGQFQPSLCHKFIALSDKEGKLLRNYTQNIDTLEQVAGIQRIIQCHGSFATASCLICKYKVDCEAVRGDIFNQVVPRCPRCPADEPLAIMKPEIVFFGENLPEQFHRAMKYDKDEVDLLIVIGSSLKVRPVALIPSSIPHEVPQILINREPLPHLHFDVELLGDCDVIINELCHRLGGEYAKLCCNPVKLSEITEKPPRTQKELAYLSELPPTPLHVSEDSSSPERTSPPDSSVIVTLLDQAAKSNDDLDVSESKGCMEEKPQEVQTSRNVESIAEQMENPDLKNVGSSTGEKNERTSVAGTVRKCWPNRVAKEQISRRLDGNQYLFLPPNRYIFHGAEVYSDSEDDVLSSSSCGSNSDSGTCQSPSLEEPMEDESEIEEFYNGLEDEPDVPERAGGAGFGTDGDDQEAINEAISVKQEVTDMNYPSNKS
partner: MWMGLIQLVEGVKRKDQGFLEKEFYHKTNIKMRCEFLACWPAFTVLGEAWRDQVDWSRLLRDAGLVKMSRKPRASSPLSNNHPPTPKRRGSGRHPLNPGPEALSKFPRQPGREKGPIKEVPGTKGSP

Variants of: B1
Details: with csag2_human CSAG2, Q9Y5P2

Variant | effect of a mutation on the interaction
H363Y | decreasing interaction
